In patent US20190359687A1 (Bayer, published 2019):

Legend:
[1] = target: T1, human glycophorin A on human red blood cells (human, UniProt P02724 20-150); experiment: partition to human RBC, vWF deficient plasma, 15 min
T1 construct: whole, on cells; also called human GPA; huGPA
T1 sequence (looked up): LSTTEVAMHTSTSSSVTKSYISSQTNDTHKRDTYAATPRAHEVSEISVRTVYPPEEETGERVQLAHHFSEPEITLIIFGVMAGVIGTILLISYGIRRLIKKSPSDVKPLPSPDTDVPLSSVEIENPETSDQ

[2] = target: T2, glycophorin A peptide GP5 (human, biotin at the N-terminus); experiment: Octet, GP5 peptide on the probe, fusion protein in solution, 1:1 fit
T2 construct: Residues 42 to 61 of the human glycophorin A extracellular domain
T2 peptide: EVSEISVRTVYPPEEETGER

[3] = target: T1, human glycophorin A on human red blood …; experiment: partition to human RBC, vWF deficient plasma, 30 min
[4] = target: T1, human glycophorin A on human red blood …; experiment: partition to human RBC, vWF deficient plasma, 5 min
[5] = target: T3, Cynomolgus monkey glycophorin A on Cynomolgus monkey red blood cells (Cynomolgus monkey); experiment: partition to Cyno RBC, human HemA plasma, 120 min;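 also: FVIII fusion spiked at 1 IU/mL into RBC suspension at whole-blood density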
T3 construct: whole, on cells; also called Cyno GPA; Cyno RBC

[6] = target: T1, human glycophorin A on human red blood …; experiment: partition to human RBC, vWF deficient plasma, 1 min
[7] = target: T1, human glycophorin A on human red blood …; experiment: partition to human RBC, vWF deficient plasma, 120 min
[8] = target: T1, human glycophorin A on human red blood …; experiment: partition to human RBC, vWF deficient plasma, 60 min

percentage bound to human RBC [1]: 89.9%
Kd [2]: 1.27 nM
koff [2]: 0.00066 s⁻¹
kon [2]: 520000 M⁻¹ s⁻¹
percentage bound to human RBC [3]: 91.2%
percentage bound to human RBC [4]: 87.4%
% bound to Cyno RBC [5]: 62.8%
percentage bound to human RBC [6]: 44.1%
percentage bound to human RBC [7]: 92.3%
percentage bound to human RBC [8]: 80.3%
B1: TPP-9423 FVIII-scFv fusion protein (other)
chain: DIQLTQSPSFLSASVGDRVTITCRASSSVRYIYWFQQKPGKAPKLLIYATSFRQSGVPSRFSGSGSGTEYTLTISSLQPEDFATYYCHQRNSFPYTFGQGTKLEIKGGGGSGGGGSGGGGSGGGGSEVQLVQSGAEVKKPGASVKVSCKASGYTFTTYAIHWVRQAPGQGLEWMGYINPSSGYTRYNPKFKGRVTMTRDKSTSTAYMELRSLRSDDTAVYYCWTGTRDYWGQGTTVTVSSGGGSGGGGSGLVPRGSGGGSGGGGSGATRRYYLGAVELSWDYMQSDLGELPVDARFPPRVPKSFPFNTSVVYKKTLFVEFTDHLFNIAKPRPPWMGLLGPTIQAEVYDTVVITLKNMASHPVSLHAVGVSYWKASEGAEYDDQTSQREKEDDKVFPGGSHTYVWQVLKENGPMASDPLCLTYSYLSHVDLVKDLNSGLIGALLVCREGSLAKEKTQTLHKFILLFAVFDEGKSWHSETKNSLMQDRDAASARAWPKMHTVNGYVNRSLPGLIGCHRKSVYWHVIGMGTTPEVHSIFLEGHTFLVRNHRQASLEISPITFLTAQTLLMDLGQFLLFCHISSHQHDGMEAYVKVDSCPEEPQLRMKNNEEAEDYDDDLTDSEMDVVRFDDDNSPSFIQIRSVAKKHPKTWVHYIAAEEEDWDYAPLVLAPDDRSYKSQYLNNGPQRIGRKYKKVRFMAYTDETFKTREAIQHESGILGPLLYGEVGDTLLIIFKNQASRPYNIYPHGITDVRPLYSRRLPKGVKHLKDFPILPGEIFKYKWTVTVEDGPTKSDPRCLTRYYSSFVNMERDLASGLIGPLLICYKESVDQRGNQIMSDKRNVILFSVFDENRSWYLTENIQRFLPNPAGVQLEDPEFQASNIMHSINGYVFDSLQLSVCLHEVAYWYILSIGAQTDFLSVFFSGYTFKHKMVYEDTLTLFPFSGETVFMSMENPGLWILGCHNSDFRNRGMTALLKVSSCDKNTGDYYEDSYEDISAYLLSKNNAIEPRSFSQNDENQSPRSFQKKTRHYFIAAVERLWDYGMSSSPHVLRNRAQSGSVPQFKKVVFQEFTDGSFTQPLYRGELNEHLGLLGPYIRAEVEDNIMVTFRNQASRPYSFYSSLISYEEDQRQGAEPRKNFVKPNETKTYFWKVQHHMAPTKDEFDCKAWAYFSDVDLEKDVHSGLIGPLLVCHTNTLNPAHGRQVTVQEFALFFTIFDETKSWYFTENMERNCRAPCNIQMEDPTFKENYRFHAINGYIMDTLPGLVMAQDQRIRWYLLSMGSNENIHSIHFSGHVFTVRKKEEYKMALYNLYPGVFETVEMLPSKAGIWRVECLIGEHLHAGMSTLFLVYSNKCQTPLGMASGHIRDFQITASGQYGQWAPKLARLHYSGSINAWSTKEPFSWIKVDLLAPMIIHGIKTQGARQKFSSLYISQFIIMYSLDGKKWQTYRGNSTGTLMVFFGNVDSSGIKHNIFNPPIIARYIRLHPTHYSIRSTLRMELMGCDLNSCSMPLGMESKAISDAQITASSYKTNMFATWSPSKARLHLQGRSNAWRPQVNNPKEWLQVDFQKTMKVTGVTTQGVKSLLTSMYVKEFLISSSQDGHQWTLFFQNGKVKVFQGNQDSFTPVVNSLDPPLLTRYLRIHPQSWVHQIALRMEVLGCEAQDLY
notes: also called 9423 (F2196K)
